Experimental data taken from publication PMC4509860.

target: FITC-labeled HcaA leader peptide (Bacillus sp. Al Hakam); assay: fluorescence polarisation

Point of comparison: HcaF E76A (natural protein), Kd 0.25 µM. Against it:
- HcaF I80A (natural protein) — 2-fold higher, 0.5 µM
- HcaF N72A (natural protein) — 3.2-fold lower, 0.079 µM
- HcaF E79A (natural protein) — 3.3-fold lower, 0.075 µM
- HcaF D38A (natural protein) — 3.2-fold lower, 0.077 µM
- HcaF R73A (natural protein) — higher, > 10 µM

target: FITC-labeled CurA leader (Corynebacterium urealyticum DSM 7109); assay: fluorescence polarisation

Point of comparison: CurC Q21A (natural protein), Kd 8 µM. Against it:
- CurC D18A (natural protein) — 2.4-fold lower, 3.3 µM
- CurC Y31A (natural protein) — higher, > 150 µM
- CurC E36A (natural protein) — 2.6-fold lower, 3.1 µM
- CurC I75A (natural protein) — 8.2-fold higher, 66 µM
- CurC E25A (natural protein) — 1.9-fold lower, 4.3 µM
- CurC R68A (natural protein) — 9.9-fold higher, 79 µM

target: FITC-labeled BalhA1 leader peptide (Bacillus sp. Al Hakam); assay: fluorescence polarisation

Point of comparison: BalhC H38A (natural protein), Kd 21 µM. Against it:
- BalhC wild-type (natural protein) — 2.1-fold lower, 10 µM
- BalhC D23A (natural protein) — 2.4-fold higher, 50 µM
- BalhC E66A (natural protein) — 2.9-fold higher, 60 µM
- BalhC D32A (natural protein) — the same, 21 µM
- BalhC K20A (natural protein) — 2.5-fold higher, 52 µM

target: FITC-labeled StmA leader peptide (Streptomonospora alba); assay: fluorescence polarisation

Point of comparison: StmE D69A (natural protein), Kd 2.6 µM. Against it:
- StmE N22A (natural protein) — 6.3-fold lower, 0.41 µM
- StmE D75A (natural protein) — 74-fold lower, 0.035 µM
- StmE Y28A (natural protein) — 93-fold lower, 0.028 µM
- StmE V12A (natural protein) — 16-fold lower, 0.16 µM
- StmE Q76A (natural protein) — 35-fold lower, 0.075 µM
- StmE D68A (natural protein) — 68-fold lower, 0.038 µM
- StmE wild-type (natural protein) — 74-fold lower, 0.035 µM
